What was measured:
[1] = target: T1, human ErbB2/Her2-Fc (Acro biosystem) (human, UniProt P04626 23-652); test: ELISA, plate coated with human ErbB2/Her2-Fc
T1 construct: Bought; also called human HER2; not shown: Fc part of a bought fusion protein

[2] = target: T2, human CEACAM5-Fc (novoprotein) (human, UniProt P06731 35-685, limits assumed); test: antigen binding activity, summary table; assay not named on the sheet
T2 construct: Bought; not shown: Fc part of a bought fusion protein
T2 sequence (looked up): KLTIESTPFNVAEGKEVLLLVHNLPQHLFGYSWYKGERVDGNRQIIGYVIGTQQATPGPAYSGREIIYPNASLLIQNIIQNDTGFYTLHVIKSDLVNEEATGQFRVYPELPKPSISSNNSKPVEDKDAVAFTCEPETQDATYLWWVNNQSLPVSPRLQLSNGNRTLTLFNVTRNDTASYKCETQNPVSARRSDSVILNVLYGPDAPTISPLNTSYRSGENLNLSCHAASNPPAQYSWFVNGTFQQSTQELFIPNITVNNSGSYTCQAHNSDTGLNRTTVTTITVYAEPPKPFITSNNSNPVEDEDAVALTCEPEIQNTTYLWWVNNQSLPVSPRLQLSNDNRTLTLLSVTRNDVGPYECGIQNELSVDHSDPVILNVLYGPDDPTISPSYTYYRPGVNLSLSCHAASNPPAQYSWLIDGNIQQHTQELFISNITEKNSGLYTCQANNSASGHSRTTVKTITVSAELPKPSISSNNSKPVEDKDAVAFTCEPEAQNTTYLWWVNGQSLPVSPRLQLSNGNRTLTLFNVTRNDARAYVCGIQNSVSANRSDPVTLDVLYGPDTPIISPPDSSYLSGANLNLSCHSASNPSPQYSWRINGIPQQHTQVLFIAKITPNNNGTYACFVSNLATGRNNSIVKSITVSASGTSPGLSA

[3] = target: T3, hEGFR-Fc (Sino Biological) (human, UniProt P00533 25-645); test: as above
T3 construct: Bought; also called human EGFR; humans EGFR-Fc protein; not shown: Fc part of a bought fusion protein

[4] = target: T4, Human VEGFR2-Fc (Sino Biological) (human, UniProt P35968 20-764); test: as above
T4 construct: Bought; not shown: Fc part of a bought fusion protein
T4 sequence (P35968 20-764 limits assumed): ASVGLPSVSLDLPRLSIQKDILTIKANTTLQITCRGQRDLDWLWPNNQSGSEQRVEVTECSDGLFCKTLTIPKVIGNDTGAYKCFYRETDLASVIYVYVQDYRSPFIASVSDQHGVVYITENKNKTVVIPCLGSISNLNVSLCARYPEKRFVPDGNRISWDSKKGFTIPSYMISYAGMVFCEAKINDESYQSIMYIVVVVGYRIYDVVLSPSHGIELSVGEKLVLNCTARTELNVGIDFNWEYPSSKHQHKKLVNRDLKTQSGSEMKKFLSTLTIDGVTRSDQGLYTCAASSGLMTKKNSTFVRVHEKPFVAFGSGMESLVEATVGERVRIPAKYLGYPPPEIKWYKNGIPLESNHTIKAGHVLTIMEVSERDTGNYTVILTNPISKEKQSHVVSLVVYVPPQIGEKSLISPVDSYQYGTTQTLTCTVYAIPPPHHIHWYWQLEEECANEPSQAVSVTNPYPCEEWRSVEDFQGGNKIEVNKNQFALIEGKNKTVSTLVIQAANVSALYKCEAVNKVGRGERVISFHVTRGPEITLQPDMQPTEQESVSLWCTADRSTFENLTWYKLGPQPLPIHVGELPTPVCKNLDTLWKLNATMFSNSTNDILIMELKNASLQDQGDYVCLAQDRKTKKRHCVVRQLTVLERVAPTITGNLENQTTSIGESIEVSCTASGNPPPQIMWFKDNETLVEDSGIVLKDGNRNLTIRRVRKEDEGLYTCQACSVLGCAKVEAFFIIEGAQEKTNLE

[5] = target: T4, Human VEGFR2-Fc (Sino Biological); test: ELISA, plate coated with human VEGFR2-Fc 1ug/ml, anti-His-HRP detection
[6] = target: T3, hEGFR-Fc (Sino Biological); test: ELISA, plate coated with human EGFR-Fc, anti-His-HRP detection
[7] = target: T5, human ErbB3/Her3-Fc (Acro biosystem) (human, UniProt P21860 20-643); test: ELISA, plate coated with human ErbB3/Her3-Fc
T5 construct: Bought; also called human HER3; not shown: Fc part of a bought fusion protein

B1: 2D3-CDoem3-H (VHH)
VHH: EVQLVESGGSLVQPGGSLRLSCAASGFTFDDYAMSWVRQVPGKGLEWVSSINWSGTHTDYADSVKGRFTISRNNANNTLYLQMNSLKSEDTAVYYCAKNWRDAGTTWFEKSGSAGQGTQVTVSS
notes: sdAb-cytosine deaminase fusion with C-terminal His-tag; Built from parts
EC50 (read off the curve) [1]: ~0.1 nM

B2: NbCEA5-CDoem3-H (VHH)
VHH: QVQLVESGGGSVQAGGSLRLSCAASGDTYGSYWMGWFRQAPGKEREGVAAINRGGGYTVYADSVKGRFTISRDTAKNTVYLQMNSLRPDDTADYYCAASGVLGGLHEDWFNYWGQGTQVTVSS
notes: as for B1
binding result [2]: binds

B3: 47D5-CDoem3-H (VHH)
VHH: KVQLVESGGGLVQPGGSLRLSCAASGSIFGFNDMAWYRQAPGKQRELVALISRVGVTSSADSVKGRFTISRVNAKDTVYLQMNSLKPEDTAVYYCYMDQRLDGSTLAYWGQGTQVTVSS
notes: as for B1
EC50 (read off the curve) [1]: ~0.2 nM

B4: Inherbin3-CD-H (other)
antigen binding fragment-CD fusion: MLVYNKLTFQLEPNPHTKGGGGSGGGGSGGGGSVTGGMASKWDQKGMDIAYEEAALGYKEGGVPIGGCLINNKDGSVLGRGHNMRFQKGSATLHGEISTLENCGRLEGKVYKDTTLYTTLSPCDMCTGAIIMYGIPRCVVGENVNFKSKGEKYLQTRGHEVVVVDDERCKKIMKQFIDERPQDWFEDIGEGSSHHHHHH
binding result [3]: binds

B5: Inherbin1-CD-H (other)
antigen binding fragment-CD fusion: MMLYNPTTYQMDVNPEGKGGGGSGGGGSGGGGSVTGGMASKWDQKGMDIAYEEAALGYKEGGVPIGGCLINNKDGSVLGRGHNMRFQKGSATLHGEISTLENCGRLEGKVYKDTTLYTTLSPCDMCTGAIIMYGIPRCVVGENVNFKSKGEKYLQTRGHEVVVVDDERCKKIMKQFIDERPQDWFEDIGEGSSHHHHHH
binding result [3]: no binding

B6: 3VGR19-CD-H (VHH)
VHH: QVQLQESGGGSVQAGGSLRLSCVASGYSVSKNSMGWFRQAPGKEREGVAGINEGGTATYYANSVKGRFTISQDNAKNTVYLQMNTLKPEDTAIYYCAAGSPDPPPLIESVVKYWGQGTQVTVSS
notes: sdAb-cytosine deaminase fusion with C-terminal His-tag, made in E. coli; Built from parts; An N-terminal Met may precede the sdAb
binding result [4]: binds

B7: 3VGR10-CD-H (VHH)
VHH: QVQLQESGGGSVQAGGSLRLSCVASGYSVSKNSMGWFRQAPGKEREGVAGINEGGTATYYANSVKGRFTISQDNARNTVYLQMNTLKPEDTAIYYCAAGSPDPPPLIESVVKYWGQGTQVTVSS
binding result [4]: binds

B8: 4VGR17-CD-H (VHH)
VHH: QVQLQESGGGSVQAGGSLRLSCVASGYSVSKNSMGWFRQAPGKEREGVAGINYGGTATYYANSVKGRFTISQDNAKNTVYLQMNTLKPEDTAIYYCAAGSPDPPPLIEGVVKYWGQGTQVTVSS
notes: as for B1
EC50 (read off the curve) [5]: ~20 ng/mL

B9: 3VGR17-CD-H (VHH)
VHH: QVQLQESGGGSVQAGGSLRLSCAASGYTYCSYDMGWYRQAPGKEREFVSAIDNYGRTGYADSVKGRFTISQDNAKNTSYLQMNSLKPEDTAIYYCKVDVCPDPSRPGRPGYWGQGTQVTVSS
binding result [4]: binds

B10: GE10-CD-H (other)
antigen binding fragment-CD fusion: MLHLWVPEPWTQTGGGGSGGGGSGGGGSVTGGMASKWDQKGMDIAYEEAALGYKEGGVPIGGCLINNKDGSVLGRGHNMRFQKGSATLHGEISTLENCGRLEGKVYKDTTLYTTLSPCDMCTGAIIMYGIPRCVVGENVNFKSKGEKYLQTRGHEVVVVDDERCKKIMKQFIDERPQDWFEDIGEGSSHHHHHH
binding result [3]: binds

B11: GE11-CD-H (other)
antigen binding fragment-CD fusion: MYHWYGYTPQNVIGGGGSGGGGSGGGGSVTGGMASKWDQKGMDIAYEEAALGYKEGGVPIGGCLINNKDGSVLGRGHNMRFQKGSATLHGEISTLENCGRLEGKVYKDTTLYTTLSPCDMCTGAIIMYGIPRCVVGENVNFKSKGEKYLQTRGHEVVVVDDERCKKIMKQFIDERPQDWFEDIGEGSSHHHHHH
binding result [3]: no binding

B12: DOM-16-39-CD-H (VHH)
sdAb-CD fusion: MDIQMTQSPTSLSASVGDRVTITCRASQWIGNLLDWYQQKPGEAPKLLIYYASFLQSGVPSRFSGGGFGTDFTLTISSLQPEDFATYYCQQANPAPLTFGQGTKVEIKRGGGGSGGGGSGGGGSVTGGMASKWDQKGMDIAYEEAALGYKEGGVPIGGCLINNKDGSVLGRGHNMRFQKGSATLHGEISTLENCGRLEGKVYKDTTLYTTLSPCDMCTGAIIMYGIPRCVVGENVNFKSKGEKYLQTRGHEVVVVDDERCKKIMKQFIDERPQDWFEDIGEGSSHHHHHH
binding result [3]: binds

B13: VHH122-CD-H (VHH)
VHH: EVQLQESGGGLVQAGDSLRLSCLVSGRSFNSYTMGWFRQAPGKEREFVAAILWSGPTTYYADSVKGRFTISRDNAKNTVYLQMNSLKPEDTAVYYCAAALGVLVLAPGNVYSYWGQGTQVTVSS
notes: as for B1
EC50 (read off the curve) [6]: ~0.8 nM

B14: BCD090-M2-CDoem3-H (VHH)
VHH: QVQLVQSGGGLVQAGGSLRLSCAFSGRTFSMYTMGWFRQAPGKEREFVAANRGRGLSPDIADSVNGRFTISRDNAKNTLYLQMDSLKPEDTAVYYCAADLQYGSSWPQRSSAEYDYWGQGTTVTVSS
EC50 (read off the curve) [7]: ~0.5 nM

B15: 4VGR38-CD-H (VHH)
VHH: QVQLQESGGGSVQAGGSLTLSCEVSGYSVNSNSMGWFRQAPGKEREGVAGINEGGVSTYYANFVQGRFTISQDNAKNMVYLQMNSLKPEDTAIYYCAAGAPDPPPLIESIVKYWGQGTQVTVSS
notes: as for B1
binding result [5]: binds

Source: US20220056149A1 (LUMOSA THERAPEUTICS, published 2022)
